Consider 1 protein from PMC3751045.

Common to all, as to test: purified protein
Common to all, as to settings: 160 μM NADPH, pH 6.5 phosphate, 40°C, GST fusion

Substrate in series [1]: O=C[C@@H](O)[C@H](O)CO
Substrate in series [2]: CC(=O)C=O
Substrate in series [3]: O=CC=O
Substrate in series [4]: O=C[C@@H](O)CO

B1: Err1 from T. reesei (GLD1) (Trichoderma reesei) (protein)
chain: MSSGRTVTLNTGYKIPQIGYGTWQAAPGEVGAGVFEALKVGYRHLDLAKVYGNQKEVGEGIKKALAEVPGLKREDIFITSKLWNNSHKPEDVEPALDDTLAELGLDYLDLYLIHWPVAFAPGADLFPKSEDGSEVQLNQNVSIVQTWKAMTELPKSKVRSVGVSNFTIEHLDAVIEATGVVPAVNQIERHPRLPNQPLIDYCAKKGIIITAYSAFGNNTKGLPLLVSSDEVKAVADNLSKKQGKTVTPAQVILAWSQIGGHTVIPKSVTKARIAENFQEVELDDEAIAALNKLGEKPQRFNIPYTYKPRWNINLFNTEEEKAAAHTAVIKL
Regarding B1, the Michaelis-Menten constant (Km) was 94.07 ± 2.46 µM in “purified protein [1]”, 131.86 ± 1.84 µM in the series “purified protein [2]”, 102.74 ± 9.76 µM in the series “purified protein [3]” and 158.04 ± 5.00 µM in “purified protein [4]”. For the same protein, the kcat in “purified protein [1]” was found to be 29 s⁻¹; in the series “purified protein [2]”, 72.6 s⁻¹; in “purified protein [3]”, 18.8 s⁻¹; in the series “purified protein [4]”, 47.9 s⁻¹. Moreover, the kcat/Km in the series “purified protein [1]” was determined as 309000 M⁻¹ s⁻¹; in the series “purified protein [2]”, 550000 M⁻¹ s⁻¹; in “purified protein [3]”, 183000 M⁻¹ s⁻¹; in “purified protein [4]”, 303000 M⁻¹ s⁻¹.
